Test results published in doi:10.1101/2024.07.08.602401 (bioRxiv, 2024).

Legend:
[1] = molecular target: HLA-E-VL9 complex (Homo sapiens, HLA-E*01:03, strain); assay: BLI
[2] = molecular target: HLA-E-… single chain trimer on transfected 293T cells (Homo sapiens HLA-E*01:03 assumed; …); assay: flow cytometry on cells
[3] = molecular target: HLA-E-[…] single chain trimer on transfected 293T cells (Homo sapiens HLA-E*01:03 assumed; …); assay: flow cytometry on cells

Row | Binder | Kd [1] [nM] | binding result [2] | binding result [3]
1 | 3H4v31 IgG1 (antibody, V domains shown) VH: EVQLQESGPELVKPGASVKIPCKASGYTFTDYNMDWVKQSHGKSLEWIGDINPNNGGTIYNQKFKGKATLTVDKSSSTAYMELRSLTSEDTAVYYCARPDSAQYRWNWYFDVWGTGTTVTVSS VL: DIVITQSPSSMYASLGERVTITCKASQDINSYLSWFQQKPGKSPKTLIYRANRLVDGVPSRFSGSGSGQDYSLTISSLEYEDMGIYYCLQYDEFPLTFGAGTKLELK | 11.5 | – | –
2 | wildtype 3H4 IgG1 (antibody, V domains shown) VH: EVQLQESGPELVKPGASVKIPCKASGYTFTDYNMDWVKQSHGKSLEWIGDINPNNGGTIYNQKFKGKATLTVDKSSSTAYMELRSLTSEDTAVYYCARPDYYGSSYGWYFDVWGTGTTVTVSS VL: DIVITQSPSSMYASLGERVTITCKASQDINSYLSWFQQKPGKSPKTLIYRANRLVDGVPSRFSGSGSGQDYSLTISSLEYEDMGIYYCLQYDEFPLTFGAGTKLELK | – | binds | binds
